Residue numbers refer to the chain shown, from its start. In names and notes the source's numbering stands.
B1: feline IgG1a mutant ID No. 251: S428M, Q311Y (antibody, part only; not given: Variable domains, not shown: another chain or arm of the molecule)
constant: ASTTAPSVFPLAPSCGTTSGATVALACLVLGYFPEPVTVSWNSGALTSGVHTFPAVLQASGLYSLSSMVTVPSSRWLSDTFTCNVAHPPSNTKVDKTVRKTDHPPGPKPCDCPKCPPPEMLGGPSIFIFPPKPKDTLSISRTPEVTCLVVDLGPDDSDVQITWFVDNTQVYTAKTSPREEQFNSTYRVVSVLPILHYDWLKGKEFKCKVNSKSLPSPIERTISKAKGQPHEPQVYVLPPAQEELSRNKVSVTCLIKSFHPPDIAVEWEITGQPEPENNYRTTPPQLDSDGTYFVYSKLSVDRSHWQRGNTYTCSVMHEALHSHHTQKSLTQSPGK
B2: feline IgG1a mutant ID No. 276: S252R, S434R, Q311W (antibody, part only; not given: variable domains and light chain, not shown: another chain or arm of the molecule)
constant: B1 constant with S138R, Y197W, M316S, S322R
B3: feline IgG1a mutant ID No. 272: S252R, S434F (antibody, part only; not given: variable domains, not shown: another chain or arm of the molecule)
constant: B1 constant with S138R, Y197Q, M316S, S322F
B4: feline IgG1a mutant ID No. 280: S252R, S434Y, Q311W (antibody, part only; not given: Variable domains, not shown: another chain or arm of the molecule)
constant: B1 constant with S138R, Y197W, M316S, S322Y
B5: feline IgG1a mutant ID No. 269: S252F, S434R, Q311W (antibody, part only; not given: Variable domains, not shown: another chain or arm of the molecule)
constant: B1 constant with S138F, Y197W, M316S, S322R
B6: feline IgG1a mutant ID No. 282: S252Y, Q311W, D312P, L314K (antibody, part only; not given: Variable domains, not shown: another chain or arm of the molecule)
constant: B1 constant with S138Y, Y197W, D198P, L200K, M316S
B7: feline IgG1a mutant ID No. 266: Q311W, L314K, S434Y (antibody, part only; not given: Variable domains, not shown: another chain or arm of the molecule)
constant: B1 constant with Y197W, L200K, M316S, S322Y
B8: feline IgG1a mutant ID No. 273: S252R, S434F, Q311W (antibody, part only; not given: Variable domains, not shown: another chain or arm of the molecule)
constant: B1 constant with S138R, Y197W, M316S, S322F
B9: feline IgG1a mutant ID No. 267: S252F, S434F, Q311W (antibody, part only; not given: Variable domains, not shown: another chain or arm of the molecule)
constant: B1 constant with S138F, Y197W, M316S, S322F
B10: feline IgG1a mutant ID No. 256: S428M, S434W (antibody, part only; not given: variable domains and light chain, not shown: another chain or arm of the molecule)
constant: B1 constant with Y197Q, S322W
B11: feline IgG1a mutant ID No. 279: S252R, S434Y (antibody, part only; not given: Variable domains, not shown: another chain or arm of the molecule)
constant: B1 constant with S138R, Y197Q, M316S, S322Y
B12: feline IgG1a mutant ID No. 257: S428M, S434Y (antibody, part only; not given: Variable domains, not shown: another chain or arm of the molecule)
constant: B1 constant with Y197Q, S322Y
B13: feline IgG1a mutant ID No. 252: S428M, S434F (antibody, part only; not given: variable domains and light chain, not shown: another chain or arm of the molecule)
constant: B1 constant with Y197Q, S322F
B14: feline IgG1a mutant ID No. 270: S252F, S434W, Q311W (antibody, part only; not given: variable domains and light chain, not shown: another chain or arm of the molecule)
constant: B1 constant with S138F, Y197W, M316S, S322W
B15: feline IgG1a mutant ID No. 268: S252F, S434H, Q311W (antibody, part only; not given: Variable domains, not shown: another chain or arm of the molecule)
constant: B1 constant with S138F, Y197W, M316S, S322H
B16: feline IgG1a mutant ID No. 274: S252R, S434H, Q311W (antibody, part only; not given: Variable domains, not shown: another chain or arm of the molecule)
constant: B1 constant with S138R, Y197W, M316S, S322H
B17: feline IgG1a mutant ID No. 271: S252F, S434Y, Q311W (antibody, part only; not given: Variable domains, not shown: another chain or arm of the molecule)
constant: B1 constant with S138F, Y197W, M316S, S322Y
B18: feline IgG1a mutant ID No. 277: S252R, S434W (antibody, part only; not given: Variable domains, not shown: another chain or arm of the molecule)
constant: B1 constant with S138R, Y197Q, M316S, S322W
B19: feline IgG1a mutant ID No. 281: S252Y, D312P, L314K, S434Y (antibody, part only; not given: Variable domains, not shown: another chain or arm of the molecule)
constant: B1 constant with S138Y, Y197Q, D198P, L200K, M316S, S322Y
B20: feline IgG1a mutant ID No. 254: S428M, S434N (antibody, part only; not given: Variable domains, not shown: another chain or arm of the molecule)
constant: B1 constant with Y197Q, S322N

Biological target: feline FcRn complex (FcRn-α subunit and β-microglobulin) (feline)
Assay: SPR (Biacore), FcRn on SA chip, pH 6

Kd | Binder
5.83 nM | B1
28.7 nM | B2
7.96 nM | B3
2.87 nM | B4
11.3 nM | B5
30 nM | B6
2.8 nM | B7
4.77 nM | B8
4.15 nM | B9
0.193 nM | B10
10.8 nM | B11
0.264 nM | B12
0.19 nM | B13
3.68 nM | B14
14.3 nM | B15
5.62 nM | B16
0.0969 nM | B17
7.1 nM | B18
2.35 nM | B19
10.6 nM | B20

Biological target: feline FcRn complex (FcRn-α subunit and β-microglobulin) (feline)
Assay: SPR (Biacore), FcRn on SA chip, pH 7.4

Kd | Binder
20.3 nM | B1
14800 nM | B2
11900 nM | B3
4400 nM | B4
1520 nM | B5
119 nM | B6
388 nM | B7
4760 nM | B8
4030 nM | B9
31.6 nM | B10
12100 nM | B11
21.9 nM | B12
27.4 nM | B13
2640 nM | B14
10700 nM | B15
3850 nM | B16
6.21 nM | B17
6600 nM | B18
1590 nM | B19
8.83 nM | B20
